The text below walks through data of PMC3757403.

The target of this assay is de2-7EGFR (UniProt P00533). Description: non-reducing SDS-PAGE and Western blot of disulfide-bonded dimers; cells washed and lysed in RIPA buffer with 10 mM iodoacetamide; non-reducing Laemmli buffer; blot probed with mAb806.

“de2-7EGFR (from UniProt P00533 25-1210) (receptor)” had a dimer as proportion of the total species of 25%.
